Assay results from patent US20030059769, “High affinity nucleic acid ligands to lectins” (published 2003).

Legend:
[1] = target: P-selectin on activated platelets (Homo sapiens, UniProt P16109 P16109:42-830); experiment: flow; biotinylated, SA-PE; divalent cation dependent; blocked by G1 antibody; details: hairpin
Description: To detect oligonucleotide ligand binding, 15 μl BB+ containing ligand conjugated to either FITC or biotin was incubated 20-30 minutes at 4° C. with 10 μl platelet suspension. The FITC-figand incubations were diluted to 200 μl with BB+ and analyzed on a FACSCaliber flow cytometer. The biotinylated-ligand reactions were incubated with streptavidin-phycoehrin (SA-PE) (Becton Dickinson) for 20 minutes at 4° C., before dilution and analysis. Wash steps with 500 μl BB+ and 700 ×g spins have been used without compromising the quality of the results.
Since the P-selectin ligands were isolated against purified protein, their ability to bind P-selectin presented in the context of a cell surface was determined in flow cytometry experiments with activated human platelets. Platelets were gated by side scatter and CD61 expression. […] The expression of P-selectin was monitored with anti-CD62P monoclonal antibody (Becton Dickinson).

P-selectin (PS-Rg) [2] = target: T1, P-selectin (PS-Rg) (Homo sapiens, UniProt P16109 P16109:42-321); experiment: filter; HSMC; SLeX IC50 2 nM; details: tags: human IgG1 Fc fusion; chain copies: dimer; hairpin
T1 sequence (P16109 42-321, one chain of several): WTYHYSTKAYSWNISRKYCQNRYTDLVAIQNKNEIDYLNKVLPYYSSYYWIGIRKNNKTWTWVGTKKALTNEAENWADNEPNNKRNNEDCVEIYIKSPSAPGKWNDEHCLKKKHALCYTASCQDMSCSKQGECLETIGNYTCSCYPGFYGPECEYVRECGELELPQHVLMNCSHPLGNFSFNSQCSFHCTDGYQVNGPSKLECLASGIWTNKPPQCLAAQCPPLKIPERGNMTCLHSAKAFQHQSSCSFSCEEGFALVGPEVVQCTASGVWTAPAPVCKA

L-selectin (LS-Rg) [3] = target: T2, L-selectin (LS-Rg) (Homo sapiens, UniProt P14151 P14151:39-332); experiment: filter; room temperature; Table 13 prints 110 nM (probably pM), 380 pM at 37 C; details: tags: human IgG2 Fc fusion; chain copies: 2 (stated dimer)
T2 sequence: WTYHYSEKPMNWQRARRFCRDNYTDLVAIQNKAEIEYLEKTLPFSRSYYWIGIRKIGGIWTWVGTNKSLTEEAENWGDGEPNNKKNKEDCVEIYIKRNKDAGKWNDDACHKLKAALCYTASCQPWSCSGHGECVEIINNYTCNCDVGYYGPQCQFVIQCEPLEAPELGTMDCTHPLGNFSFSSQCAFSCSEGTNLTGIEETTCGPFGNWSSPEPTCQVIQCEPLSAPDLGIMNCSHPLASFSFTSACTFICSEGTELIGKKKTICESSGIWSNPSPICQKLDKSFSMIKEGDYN
Description: (§1) As described in SELEX Patent Applications and in Example 7, paragraph C, a nitrocellulose filter partitioning method was used to determine the affinity of ssDNA ligands for LS-Rg and for other proteins. For these experiments a Gibco BRL 96 well manifold was substituted for the 12 well Millipore manifold used in Example 7 and radioactivity was determined with a Fujix BAS100 phosphorimager. Bindin, data were analyzed as described in Example 7, paragraph C.

soluble L-selectin [4] = target: T3, soluble L-selectin (Homo sapiens, UniProt P14151 P14151:39-332); experiment: filter; binding undetectable; Table 16 sequence differs from SEQ 358; details: tags: R&D Systems
T3 sequence: T2 sequence

CD22beta (CD22b-Rg) = CD22beta (CD22b-Rg) (UniProt P20273 P20273:20-687); experiment: filter; no binding above background; details: tags: human IgG1 Fc fusion; chain copies: 2 (inferred)
P-selectin (PS-Rg) [5] = target: T1, P-selectin (PS-Rg); experiment: inhibition; sialyl-LewisX; details: tags: human IgG Fc fusion; chain copies: 2 (stated dimer)
Description: (§2) The ability of evolved RNA pools or cloned ligands to inhibit the binding of PS-Rg to sialyl-Lewis^x was tested in competitive ELISA assays (C. Foxall et al., 1992, supra). For these assays, the wells of Corning (25801) 96 well microtiter plates were coated with 100 ng of a sialyl-Lewis^x/BSA conjugate, air dried overnight, washed with 300 μl of PBS(−) and then blocked with 1% BSA in HSMC for 60 min at room temperature. RNA ligands were incubated with PS-Rg in HSMC/1% BSA at room temperature for 15 min. After removal of the blocking solution, 50 μl of PS-Rg (10 nM) or a PS-Rg (10 nM)/RNA ligand mix was added to the coated, blocked wells and incubated at room temperature for 60 minutes. The binding solution was removed, wells were washed with 300 μl of PBS(−) and then probed with HRP conjugated anti-human IgG, at room temperature to quantitate PS-Rg binding. After a 30 minute incubation at room temperature in the dark with OPD peroxidase substrate (Sigma P9187), the extent of PS-Rg binding and percent inhibition was determined from the OD₄₅₀.

L-selectin (LS-Rg) [6] = target: T2, L-selectin (LS-Rg); experiment: filter; affinity similar to full length LD201; details: tags: human IgG2 Fc fusion; chain copies: 2 (stated dimer)
L-selectin (LS-Rg) [7] = target: T2, L-selectin (LS-Rg); experiment: filter; affinity similar to full length LD227; details: tags: human IgG2 Fc fusion; chain copies: 2 (stated dimer)
L-selectin (LS-Rg) [8] = target: T2, L-selectin (LS-Rg); experiment: filter; affinity reduction versus full length LF1514; details: tags: human IgG2 Fc fusion; chain copies: 2 (stated dimer)
Description: (§3) As described in SELEX Patent Applications, a nitrocellulose filter partitioning method was used to determine the affinity of RNA ligands for LS-Rg and for other proteins. Filter discs (nitrocellulose/cellulose acetate mixed matrix, 0.45 μm pore size, Millipore) were placed on a vacuum manifold and washed with 3 ml of SHMCK 140 buffer under vacuum. Reaction mixtures, containing ³²P labeled RNA pools and unlabeled LS-Rg, were incubated in SHMCK 140 for 10-20 min at 37° C., and then immediately washed with 3 ml SHMCK 140. The filters were air-dried and counted in a Beckman LS6500 liquid scintillation counter without fluor. Alternatively, binding studies employed 96 well micro-titer manifolds essentially as described in Example 13, paragraph E.
(§4) Predictions of minimal high affinity sequences for family 1 ligands can be made and serve as a partial test of the postulated secondary structure.

L-selectin (LS-Rg) [9] = target: T2, L-selectin (LS-Rg); experiment: filter; affinity reduction versus full length LF1807; called LF1807T5 in Table 16; details: tags: human IgG2 Fc fusion; chain copies: 2 (stated dimer)
Description: as §3, §4

[10] = target: T4, L-selectin on PBMC / lymphocytes (Homo sapiens, UniProt P14151 P14151:39-372); experiment: flow; half-saturation; described as LD201T4 dumbell dimer; details: label: fluorescein
T4 sequence: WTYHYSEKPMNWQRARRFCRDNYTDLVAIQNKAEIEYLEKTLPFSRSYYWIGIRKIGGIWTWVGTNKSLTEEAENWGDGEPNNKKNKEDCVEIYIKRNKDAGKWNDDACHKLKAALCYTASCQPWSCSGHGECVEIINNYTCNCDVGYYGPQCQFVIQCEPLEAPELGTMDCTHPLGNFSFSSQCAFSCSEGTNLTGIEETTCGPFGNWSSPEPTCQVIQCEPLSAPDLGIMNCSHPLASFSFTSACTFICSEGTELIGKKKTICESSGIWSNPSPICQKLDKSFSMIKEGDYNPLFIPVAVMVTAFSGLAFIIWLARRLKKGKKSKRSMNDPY

[11] = target: T4, L-selectin on PBMC / lymphocytes; experiment: flow; half-saturation; described as LD201T4 fork dimer; details: label: fluorescein
[12] = target: T4, L-selectin on PBMC / lymphocytes; experiment: flow; half-saturation, monomer; details: hairpin
Description: A variety of monomeric nucleic acid ligands and multivalent Complexes have been examined in flow cytometry.

P-selectin (PS-Rg) [13] = target: T1, P-selectin (PS-Rg); experiment: inhibition; sialyl-LewisX; text says about 2 nM; details: tags: human IgG Fc fusion; chain copies: 2 (stated dimer)
Description: as §2

P-selectin (PS-Rg) [14] = target: T1, P-selectin (PS-Rg); experiment: filter; Table 21 gives 63 pM; details: tags: human IgG Fc fusion; chain copies: 2 (stated dimer)
P-selectin (PS-Rg) [15] = target: T1, P-selectin (PS-Rg); experiment: filter; details: tags: human IgG Fc fusion; chain copies: 2 (stated dimer)
P-selectin (PS-Rg) [16] = target: T1, P-selectin (PS-Rg); experiment: filter; streptavidin complex; details: tags: human IgG Fc fusion; chain copies: 2 (stated dimer)
soluble L-selectin [17] = target: T3, soluble L-selectin; experiment: filter; 37 C; table prints SEQ 339; details: tags: R&D Systems
Description: Unless otherwise indicated, all materials used in the 2′-F RNA SELEX against the L-selectin/IgG2 chimera, LS-Rg, were identical to those of Examples 7, paragraph A and 13, paragraph A. SHMCK-140 buffer, used for all SELEX and binding experiments, was 1 mM CaCl₂, 1 mM MgCC₂, 140 mM NaCl, 5 mM KCl. and 20 mM HEPES, pH 7.4. A soluble form of L-selectin, corresponding to the extracellular domains, was purchased from R&D Systems and used for some nitrocellulose filter binding experiments.
as §3

L-selectin (LS-Rg) [18] = target: T2, L-selectin (LS-Rg); experiment: filter; room temperature; repeat of Table 13 (57 pM); details: tags: human IgG2 Fc fusion; chain copies: 2 (stated dimer)
Description: as §1

Chain of P-selectin on activated platelets (P16109 42-830, one chain of several): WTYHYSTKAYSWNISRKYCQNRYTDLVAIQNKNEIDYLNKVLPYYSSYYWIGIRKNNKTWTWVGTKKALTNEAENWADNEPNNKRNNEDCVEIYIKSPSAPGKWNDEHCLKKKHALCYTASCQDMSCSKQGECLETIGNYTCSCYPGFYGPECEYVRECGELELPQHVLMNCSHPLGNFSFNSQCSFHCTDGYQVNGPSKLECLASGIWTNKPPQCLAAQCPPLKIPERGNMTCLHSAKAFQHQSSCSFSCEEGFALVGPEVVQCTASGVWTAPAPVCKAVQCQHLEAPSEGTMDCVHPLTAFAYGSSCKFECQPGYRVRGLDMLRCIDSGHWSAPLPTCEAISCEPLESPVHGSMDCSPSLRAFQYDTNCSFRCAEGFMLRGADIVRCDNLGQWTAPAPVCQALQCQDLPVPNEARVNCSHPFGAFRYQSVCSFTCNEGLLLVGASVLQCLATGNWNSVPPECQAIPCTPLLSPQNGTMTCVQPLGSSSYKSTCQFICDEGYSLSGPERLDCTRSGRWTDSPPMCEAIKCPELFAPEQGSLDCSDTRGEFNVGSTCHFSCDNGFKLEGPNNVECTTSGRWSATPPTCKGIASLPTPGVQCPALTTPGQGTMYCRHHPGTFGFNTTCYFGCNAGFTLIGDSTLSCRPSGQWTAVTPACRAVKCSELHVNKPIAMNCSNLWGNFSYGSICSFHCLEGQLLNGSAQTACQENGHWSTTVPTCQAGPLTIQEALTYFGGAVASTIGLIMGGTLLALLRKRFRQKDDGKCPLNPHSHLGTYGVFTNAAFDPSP

CUCAACGAGCCAGGAACAUCGACGUCAGCAAACGCGAG (ssRNA, 2'-F on all C and U) [PF377s1]
EC50 [1]: ~0.05 nM | Kd (P-selectin (PS-Rg) [2]): 0.06 nM

B1: LD233 (ssDNA)
DNA: CTACCTACGATCTGACTAGCCACGACAGAGAACAAGGCGTTAGACGTTATCCGACCACGGCTTACTCTCATGTAGTTCC
Kd (L-selectin (LS-Rg) [3]): 0.12 nM

B2: LF1535 (ssRNA)
RNA: GGGAGGACGAUGCGGCAAUGUGUUUCUCAAAUUGCUUUCUCCCUUCAGACGACUCGCCCGA
modifications: 2'-F C and U
binding result (soluble L-selectin [4]): no binding

B3: PA350 (ssRNA)
RNA: GGGAGACAAGAAUAAACGCUCAAGCCCCAAACGCAAGUGAGCAUCCGCAACAGGGAAGAAGACAGACGAUUGAUUCGACAGGAGGCUCACAACAGGC
modifications: 2'-NH2 C and U
binding result (CD22beta (CD22b-Rg)): no binding | IC50 (P-selectin (PS-Rg) [5]): 2 nM

CGCGGTAACCAGTACAAGGTGCTAAACGTAATGGCGCG (ssDNA) [LD201T10]
binding signal (L-selectin (LS-Rg) [6]): ~1 fold

CGCGCGTTACAAGGTGCTAAACGTAACGTACTTGCTTACTCGCG (ssDNA) [LD227X1]
binding signal (L-selectin (LS-Rg) [7]): ~1 fold

CUCAAAUUGCGUGUUUUCAAGCA (ssRNA, 2'-F C and U) [LF1514T2]
binding signal (L-selectin (LS-Rg) [8]): ≥ 100 fold

GGAGUCUUAGGCAGCGCGUUUUCGAGCUACUCC (ssRNA, 2'-F C and U) [LF1807T4]
binding signal (L-selectin (LS-Rg) [9]): ~3 fold

B4: NX303 dumbell dimer (ssDNA)
DNA: TCCAGTACAAGGTGCTAAACGTAATGGTT
modifications: two copies on PEG 3400, 5' amino C6 dT, 3'-3' terminal [1 = 5' amino modifier C6 dT; 29 = 3'-3' terminal dT; two identical copies on PEG 3400 (PEG left out)]
EC50 [10]: 0.1 nM

B5: NX303 fork dimer (ssDNA)
DNA: TCCAGTACAAGGTGCTAAACGTAATGGTT
modifications: two copies on forked 20 kDa PEG, 5' amino C6 dT, 3'-3' terminal [1 = 5' amino modifier C6 dT; 29 = 3'-3' terminal dT; two identical copies on forked 20 kDa PEG (PEG left out)]
EC50 [11]: 0.6 nM

CCAGTACAAGGTGCTAAACGTAATGG (ssDNA) [LD201T4]
EC50 [12]: 20 nM

B6: PF377 (ssRNA)
RNA: GGGAGACAAGAAUAAACGCUCAACGAGCCAGGAACAUCGACGUCAGCAAACGCGAGCGCAACCAGUAACACCUUCGACAGGAGGCUCACAACAGGC
modifications: 2'-F C and U
IC50 (P-selectin (PS-Rg) [13]): 3 nM

CUCAACGAACCACGGGGAAAUCCACCAGUAACACGCGAG (ssRNA, 2'-F C and U) [PF398s1]
Kd (P-selectin (PS-Rg) [14]): 0.178 nM | IC50 (P-selectin (PS-Rg) [5]): 2 nM

CUCAACGAGUUCACAUGGGAGCAAUCUCCGAAUAAACAACACGCGAG (ssRNA, 2'-F C and U) [PF424s1]
Kd (P-selectin (PS-Rg) [15]): 0.178 nM

CUCAACGAGCCAGGAACAUCGACGUCAGCAAACGCGAG (ssRNA, 2'-F C and U, biotin bound to streptavidin) [PF377s1B:SA]
Kd (P-selectin (PS-Rg) [16]): 0.03 nM

B7: LF1520 (ssRNA)
RNA: GGGAGGACGAUGCGGAUCGAUUUCAUGCGUUUUUCGAGUGACGAUCAGACGACUCGCCCGA
modifications: 2'-F C and U
Kd (soluble L-selectin [17]): 0.5 nM

B8: LD230 (ssDNA)
DNA: CTACCTACGATCTGACTAGCTGCACACCTGAGGGTTACAAGGCGCTAGACGTAACCTCTCGCTTACTCTCATGTAGTTCC
Kd (L-selectin (LS-Rg) [18]): 0.044 nM
